The target in data set [1] is T1, 3-methylaspartate ammonia lyase (CaMAL) (Citrobacter amalonaticus, UniProt O66145).
T1 construct: C-terminal His-tag
In words: steady-state inhibition kinetics of 3-methylaspartate deamination (UV assay). It is filed as biochemical.

Substrate in data set [2]: N[C@@H](CC(=O)O)C(=O)O
In words: purified protein. The following applies: Mg2+; pH 9.0; 30.0 °C. It is filed as biochemical, Clostridium tetanomorphum.

Substrate in data set [3]: C[C@H](C(=O)O)[C@H](N)C(=O)O
In words: purified protein. Type of data set: biochemical, Clostridium tetanomorphum. The following applies: Mg2+; pH 9.0; 30.0 °C.

Substrate in data set [4]: C[C@H](C(=O)O)[C@H](N)C(=O)O
In words: purified protein. It is filed as biochemical, Carboxydothermus hydrogenoformans. The following applies: Mg2+; pH 9.0; 30.0 °C.

Substrate in data set [5]: C[C@H](C(=O)O)[C@H](N)C(=O)O
In words: purified protein. It is filed as biochemical, Citrobacter amalonaticus. The following applies: Mg2+ catalytic pocket; pH 9.0; 30.0 °C.

Where two headings read alike, the source gives them in different places.

On to `NC(CC(=O)O)CC(=O)O` [β-glutamic acid], for which, in data set [1] (read-out: Ki), the inhibitory constant (Ki) (commonly a measure of affinity in units of concentration, obtained from inhibition or displacement) stood at 71 ± 3 mM.
In the case of `NCCC[C@H](N)CC(=O)O` [β-lysine], the affinity in data set [1], expressed as Ki, was 1.7 ± 0.4 mM.

B1: 3-methylaspartate ammonia lyase (CtMAL) (Clostridium tetanomorphum) (protein)
chain: MKIVDVLCTPGLTGFYFDDQRAIKKGAGHDGFTYTGSTVTEGFTQVRQKGESISVLLVLEDGQVAHGDCAAVQYSGAGGRDPLFLAKDFIPVIEKEIAPKLIGREITNFKPMAEEFDKMTVNGNRLHTAIRYGITQAILDAVAKTRKVTMAEVIRDEYNPGAEINAVPVFAQSGDDRYDNVDKMIIKEADVLPHALINNVEEKLGLKGEKLLEYVKWLRDRIIKLRVREDYAPIFHIDVYGTIGAAFDVDIKAMADYIQTLAEAAKPFHLRIEGPMDVEDRQKQMEAMRDLRAELDGRGVDAELVADEWCNTVEDVKFFTDNKAGHMVQIKTPDLGGVNNIADAIMYCKANGMGAYCGGTCNETNRSAEVTTNIGMACGARQVLAKPGMGVDEGMMIVKNEMNRVLALVGRRK
notes: C-terminal His-tag
As for B1, in “purified protein [2]”, the Km – broadly, the concentration of substrate that gives half-maximal velocity – worked out at 67000 ± 6000 µM; the kcat (as a rule, the number of substrate molecules converted per active site and unit of time at saturation) came to 1.6 ± 0.1 s⁻¹. Also, in the data set “purified protein [3]”, the Km is 3990 ± 610 µM and the kcat was 7.6 ± 0.4 s⁻¹.

B2: 3-methylaspartate ammonia lyase (ChMAL) (Carboxydothermus hydrogenoformans Z-2901) (protein)
chain: MRIKDVLFVKGSSGFYFDDQKAIKSGAVTDGFTYKGKPLTPGFSRVRQGGEAVSIMLFLENGEIAVGDCVAVQYSGVDGRDPVFLADNFIEVLEEEIKPRLVGYNLVRFREAARYFTNLTDKRGKRYHTALRYGLTQALLDAVAKINRTTMAEVIAEEYGLDLTLNPVPLFAQSGDDRYINADKMILKRVDVLPHGLFNHPAKTGEEGKNLTEYALWLKQRIKTLGDHDYLPVFHFDVYGTLGTVFNDNLDRIADYLARLEEKVAPHPLQIEGPVDLGSKERQIEGLKYLQEKLITLGSKVIIVADEWCNNLSDIKEFVDAGAGGMVQIKSPDLGGVNDIIEAVLYAKEKGTGAYLGGSCNETDVSAKITVHVGLATGPAQLLVKPGMGVDEGLTIMRNEMMRTLAILQRNKVTFQKKVG
notes: C-terminal His-tag
Turning to B2, in the data set “purified protein [4]”, the Km came out at 1380 ± 170 µM and the kcat worked out at 66 ± 2 s⁻¹.

B3: 3-methylaspartate ammonia lyase (CaMAL) (Citrobacter amalonaticus) (protein)
chain: MKIKQALFTAGYSSFYFDDQQAIKNGAGHDGFIYTGDPVTPGFTSVRQAGECVSVQLILENGAVAVGDCAAVQYSGAGGRDPLFLAEHFIPFLNDHIKPLLEGRDVDAFLPNARFFDKLRIDGNLLHTAVRYGLSQALLDATALASGRLKTEVVCDEWQLPCVPEAIPLFGQSGDDRYIAVDKMILKGVDVLPHALINNVEEKLGFKGEKLREYVRWLSDRILSLRSSPRYHPTLHIDVYGTIGLIFDMDPVRCAEYIASLEKEAQGLPLYIEGPVDAGNKPDQIRMLTAITKELTRLGSGVKIVADEWCNTYQDIVDFTDAGSCHMVQIKTPDLGGIHNIVDAVLYCNKHGMEAYQGGTCNETEISARTCVHVALAARPMRMLIKPGMGFDEGLNIVFNEMNRTIALLQTKD
notes: C-terminal His-tag
Take B3: in the data set “purified protein [5]”, the Km stood at 1000 ± 60 µM and the kcat is 17.6 ± 0.3 s⁻¹.

For the origin of these results see paper PMC7241714, “Structure-function investigation of 3-methylaspartate ammonia lyase reveals substrate molecular determinants for the deamination reaction” (PLoS ONE, 2020).
